B1: single chain antibody P1A6E (phage-displayed, single phage ELISA) (scFv)
scFv: QVQLEQSGLGLVKPSQTLSLTCAISGDTVSSDSAAWNWIRQSPSRGLEWLGRTYYRSKWFNDYAVSVKGRITINSDTSKNQFSLQLNSVTPEDTAVYYCARSNSYYYYAMDVWGQGTLVTVSSGGGGSGGGGSGGGGSQAVLTQPSSLSASPGASASLTCTLRSGINVGIYRIYWYQQRPGSPPQILLTYKSDSDKYQGSGVPSRFSGSKDASANAGILLISGLQSEDEADYYCMIWHSGGWVFGGGTKVTVLG
notes: the fusion to the phage coat protein is not described
B2: chimeric antigen receptor P1A6E-BBZ on CTL cells (receptor)
chain: QVQLEQSGLGLVKPSQTLSLTCAISGDTVSSDSAAWNWIRQSPSRGLEWLGRTYYRSKWFNDYAVSVKGRITINSDTSKNQFSLQLNSVTPEDTAVYYCARSNSYYYYAMDVWGQGTLVTVSSGGGGSGGGGSGGGGSQAVLTQPSSLSASPGASASLTCTLRSGINVGIYRIYWYQQRPGSPPQILLTYKSDSDKYQGSGVPSRFSGSKDASANAGILLISGLQSEDEADYYCMIWHSGGWVFGGGTKVTVLGTTTPAPRPPTPAPTIASQPLSLRPEACRPAAGGAVHTRGLDFACDIYIWAPLAGTCGVLLLSLVITLYCKRGRKKLLYIFKQPFMRPVQTTQEEDGCSCRFPEEEEGGCELRVKFSRSADAPAYKQGQNQLYNELNLGRREEYDVLDKRRGRDPEMGGKPRRKNPQEGLYNELQKDKMAEAYSEIGMKGERRRGKGHDGLYQGLSTATKDTYDALHMQALPPR
notes: Expressed on human CTL cells by lentivirus; also called scFv(MSLN)-CD8-CD137-CD3 zeta
B3: P1A6E monoclonal antibody (antibody, V domains shown)
VH: QVQLEQSGLGLVKPSQTLSLTCAISGDTVSSDSAAWNWIRQSPSRGLEWLGRTYYRSKWFNDYAVSVKGRITINSDTSKNQFSLQLNSVTPEDTAVYYCARSNSYYYYAMDVWGQGTLVTVSS
VL: QAVLTQPSSLSASPGASASLTCTLRSGINVGIYRIYWYQQRPGSPPQILLTYKSDSDKYQGSGVPSRFSGSKDASANAGILLISGLQSEDEADYYCMIWHSGGWVFGGGTKVTVLG
notes: Full antibody: VH in plasmid pIH with human IgG1 CH gene, VL in plasmid pIK with human IgG CL gene; also called monoclonal antibody P1A6E
B4: P3F2 monoclonal antibody (antibody, V domains shown)
VH: QMQLVQSGAEVKKPGASVKVSCKASGYTFTSYYMHWVRQAPGQGLEWMGIINPSGGSTSYAQKFQGRVTMTRDTSTSTVYMELSSLRSEDTAVYYCASSRSGTTVVNHDAFDIWGKGTTVTVSS
VL: DIQLTQSPSSLSASVGDRVTITCRASQVISRALAWYQQTPGKPPKLLIYDASNLQSGVPSRFSGSGSGTDFTLTISRLQPEDFATYYCQQFNSYPLTFGGGTKLEIKR
notes: Full antibody: VH in plasmid pIH with human IgG1 CH gene, VL in plasmid pIK with human IgG CL gene; also called monoclonal antibody P3F2
B5: chimeric antigen receptor P3F2-BBZ on CTL cells (receptor)
chain: QMQLVQSGAEVKKPGASVKVSCKASGYTFTSYYMHWVRQAPGQGLEWMGIINPSGGSTSYAQKFQGRVTMTRDTSTSTVYMELSSLRSEDTAVYYCASSRSGTTVVNHDAFDIWGKGTTVTVSSGGGGSGGGGSGGGGSDIQLTQSPSSLSASVGDRVTITCRASQVISRALAWYQQTPGKPPKLLIYDASNLQSGVPSRFSGSGSGTDFTLTISRLQPEDFATYYCQQFNSYPLTFGGGTKLEIKRTTTPAPRPPTPAPTIASQPLSLRPEACRPAAGGAVHTRGLDFACDIYIWAPLAGTCGVLLLSLVITLYCKRGRKKLLYIFKQPFMRPVQTTQEEDGCSCRFPEEEEGGCELRVKFSRSADAPAYKQGQNQLYNELNLGRREEYDVLDKRRGRDPEMGGKPRRKNPQEGLYNELQKDKMAEAYSEIGMKGERRRGKGHDGLYQGLSTATKDTYDALHMQALPPR
notes: as for B2
B6: single chain antibody P3F2 (phage-displayed, single phage ELISA) (scFv)
scFv: QMQLVQSGAEVKKPGASVKVSCKASGYTFTSYYMHWVRQAPGQGLEWMGIINPSGGSTSYAQKFQGRVTMTRDTSTSTVYMELSSLRSEDTAVYYCASSRSGTTVVNHDAFDIWGKGTTVTVSSGGGGSGGGGSGGGGSDIQLTQSPSSLSASVGDRVTITCRASQVISRALAWYQQTPGKPPKLLIYDASNLQSGVPSRFSGSGSGTDFTLTISRLQPEDFATYYCQQFNSYPLTFGGGTKLEIKR
notes: as for B1
B7: chimeric antigen receptor P3F2-δZ on CTL cells (receptor)
chain: QMQLVQSGAEVKKPGASVKVSCKASGYTFTSYYMHWVRQAPGQGLEWMGIINPSGGSTSYAQKFQGRVTMTRDTSTSTVYMELSSLRSEDTAVYYCASSRSGTTVVNHDAFDIWGKGTTVTVSSGGGGSGGGGSGGGGSDIQLTQSPSSLSASVGDRVTITCRASQVISRALAWYQQTPGKPPKLLIYDASNLQSGVPSRFSGSGSGTDFTLTISRLQPEDFATYYCQQFNSYPLTFGGGTKLEIKRTTTPAPRPPTPAPTIASQPLSLRPEACRPAAGGAVHTRGLDFACDIYIWAPLAGTCGVLLLSLVITRVKFSRSADAPA
notes: Expressed on human CTL cells by lentivirus; also called P3F2-δZ (negative control); P3F2-δZ (mock)
B8: purified human mesothelin protein (recombinant, 6xHis tag) (other)
chain: EVEKTACPSGKKAREIDESLIFYKKWELEACVDAALLATQMDRVNAIPFTYEQLDVLKHKLDELYPQGYPESVIQHLGYLFLKMSPEDIRKWNVTSLETLKALLEVNKGHEMSPQVATLIDRFVKGRGQLDKDTLDTLTAFYPGYLCSLSPEELSSVPPSSIWAVRPQDLDTCDPRQLDVLYPKARLAFQNMNGSEYFVKIQSFLGGAPTEDLKALSQQNVSMDLATFMKLRTDAVLPLTVAEVQKLLGPHVEGLKAEERHRPVRDWILRQRQDDLDTLGLGLQGHHHHHH
notes: also called hu-mesothelin; human mesothelin recombinant protein
B9: chimeric antigen receptor P1A6E-δZ on CTL cells (receptor)
chain: QVQLEQSGLGLVKPSQTLSLTCAISGDTVSSDSAAWNWIRQSPSRGLEWLGRTYYRSKWFNDYAVSVKGRITINSDTSKNQFSLQLNSVTPEDTAVYYCARSNSYYYYAMDVWGQGTLVTVSSGGGGSGGGGSGGGGSQAVLTQPSSLSASPGASASLTCTLRSGINVGIYRIYWYQQRPGSPPQILLTYKSDSDKYQGSGVPSRFSGSKDASANAGILLISGLQSEDEADYYCMIWHSGGWVFGGGTKVTVLGTTTPAPRPPTPAPTIASQPLSLRPEACRPAAGGAVHTRGLDFACDIYIWAPLAGTCGVLLLSLVITRVKFSRSADAPA
notes: Expressed on human CTL cells by lentivirus; also called P1A6E-δZ (negative control); P1A6E-δZ (mock)

Experiments:
[1] = molecular target: T1, BSA (bovine serum albumin) (bovine, UniProt P02769 25-607); assay: single phage ELISA, 100 ng/well coated BSA, anti-M13 detection
T1 construct: also called negative control protein BSA
T1 sequence (P02769 25-607 limits assumed): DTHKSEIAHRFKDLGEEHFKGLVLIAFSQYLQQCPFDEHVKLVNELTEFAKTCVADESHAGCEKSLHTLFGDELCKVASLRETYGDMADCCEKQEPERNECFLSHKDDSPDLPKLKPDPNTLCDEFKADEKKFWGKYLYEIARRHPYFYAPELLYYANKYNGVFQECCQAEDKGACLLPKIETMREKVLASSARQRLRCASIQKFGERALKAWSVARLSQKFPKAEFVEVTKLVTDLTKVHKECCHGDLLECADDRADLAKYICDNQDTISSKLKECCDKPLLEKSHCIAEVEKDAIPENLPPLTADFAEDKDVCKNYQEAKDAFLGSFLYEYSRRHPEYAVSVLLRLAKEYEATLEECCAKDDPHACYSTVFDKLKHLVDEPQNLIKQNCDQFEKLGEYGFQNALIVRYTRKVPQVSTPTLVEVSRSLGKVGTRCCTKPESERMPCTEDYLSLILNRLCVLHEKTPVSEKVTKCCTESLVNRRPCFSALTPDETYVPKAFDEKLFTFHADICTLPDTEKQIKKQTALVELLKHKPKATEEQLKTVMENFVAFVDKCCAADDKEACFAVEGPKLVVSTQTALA
Protocol: 96 clones were randomly selected in the clones obtained from the fourth round of screening and their binding capability to human mesothelin was analyzed by single phage ELISA (enzyme-linked immunosorbent assay). For this purpose, each single colony was inoculated in 300 μl of 2×YT/ampicillin medium (containing 2% glucose) in a 96-well deep-well plate and cultured with shaking at 37° C. and 250 rpm for 16 hours. 20 μl of culture was inoculated into 500 μl of 2×YT/ampicillin medium (containing 0.1% glucose) and shaken at 37° C. and 250 rpm for 1.5 hours. To prepare the helper phage solution, 75 μl of M13KO7 (titer of 3×10¹² pfu/ml) was taken and mixed into 15 ml of 2×YT medium and added into a culture plate at 50 μl/well, and incubated at 37° C. and 150 rpm for 30 minutes. And then prepared kanamycin solution (180 μl of 50 mg/ml kanamycin was taken and added into 15 ml of 2×YT medium) was added at 50 μl/well and incubated with shaking for 16 hours at 37° C. and 250 rpm. […]
For single phage ELISA, 100 ng/well of antigen human mesothelin and negative control protein BSA (100 μl/well) were used in a 96-well MediSorp ELISA plate (purchased from Nunc) and coated overnight at 4° C. […] Extinction values were measured at 450 nm with an enzyme-linked immunosorbent (Bio-Rad).

[2] = molecular target: B8; assay: flow cytometry; CAR T cells stained with biotinylated human mesothelin recombinant protein and PE-labeled streptavidin
Protocol: Infected CTL cells were detected by flow cytometry on day 8 of culture for the expression of different chimeric antigen receptors. Firstly, the infected CAR T cells were incubated with biotinylated human mesothelin recombinant protein for 1 h at 37° C., washed in D-PBS twice and then incubated with PE-labeled streptavidin for 40 min at 37° C. After washed with D-PBS for 3 times, the ratio of positive cells was determined by flow cytometry. Uninfected T lymphocytes was used as a negative control, the positive rates of virus-infected T cells expressing different chimeric antigen receptors are shown in Table 3.

[3] = molecular target: human mesothelin on PANC-1-MSLN cells (human, UniProt Q13421 296-598); assay: cell-based or functional assay
Sequence of human mesothelin on PANC-1-MSLN cells (Q13421 other isoform, or with tags, fused parts or gaps limits assumed): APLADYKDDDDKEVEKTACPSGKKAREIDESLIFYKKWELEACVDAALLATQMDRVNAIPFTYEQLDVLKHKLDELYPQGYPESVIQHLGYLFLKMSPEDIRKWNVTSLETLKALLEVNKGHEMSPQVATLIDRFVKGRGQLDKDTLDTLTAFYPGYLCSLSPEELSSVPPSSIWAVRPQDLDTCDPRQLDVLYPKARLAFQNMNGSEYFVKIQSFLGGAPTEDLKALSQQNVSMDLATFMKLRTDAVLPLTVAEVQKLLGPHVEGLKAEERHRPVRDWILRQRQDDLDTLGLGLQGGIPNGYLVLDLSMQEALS

[4] = molecular target: B8; assay: SPR Biacore T200, antibody captured by anti-human IgG (Fc), human mesothelin as analyte, 25 C
Protocol: (§1) To quantitatively analyze the binding of an antibody to human mesothelin, the affinity and kinetic parameters of single-chain antibody and monoclonal antibody of P1A6E and P3F2 were measured by capture method using Biacore T200 system (from GE). An anti-human IgG (Fc) antibody (purchased from GE) was coupled to carboxymethyl dextran surface of sensor chip […] through primary amino with NHS/EDC coupling according to the manufacturer's instructions. Measurements were performed in 1×HBS-EP+working buffer at 25° C., 30 μl/min, and regeneration condition was 3 M MgCl2, 10 μl/min for 30 seconds. In each round of the testing cycle, the antibody to be tested is firstly captured onto the chip. Analyte (human mesothelin) of a certain concentration flowed over the chip surface. Due to the produced SPR signal, the interaction between human mesothelin and the captured antibody can be detected. The detected signal is defined as resonance unit (RU), which was plotted vs time (second) to obtain the corresponding binding curve and dissociation curve. In different test cycles, concentrations of human mesothelin were 10 nM, 20 nM, 40 nM, 80 nM and 160 nM, respectively. The resulting curves were evaluated using Biacore T200 evaluation software and the affinity KD values were calculated. FIG. 5 and FIG. 6 show kinetic curves of the monoclonal antibodies P1A6E and P3F2, in a Biacore Affinity Assay, respectively.

[5] = molecular target: T2, scFv-P1A6E-Fc (human, UniProt P01857-1 99-330 = IgG part, limits assumed); assay: as above
T2 construct: domain: Fc fragment; scFv cloned NheI/BamHI into pCMV-V5-Fc, expressed in HEK-293F, protein A purified; also called P1A6E single chain antibody; antibody-Fc fusion protein scFv-P1A6E-Fc
Protocol: as §1

[6] = molecular target: T3, scFv-P3F2-Fc (human, UniProt P01857-1 99-330 = IgG part, limits assumed); assay: as above
T3 construct: domain: Fc fragment; scFv cloned NheI/BamHI into pCMV-V5-Fc, expressed in HEK-293F, protein A purified; also called P3F2 single chain antibody; P3F2 single chain antibod
Protocol: as §1

Binder: B1
- binding result [1]: no binding

Binder: B2
- Positive rate of CTL cells transfection [2]: 85%
- CYTOTOXICITY (%), effector target ratio 1:1, LDH release, 18 h [3]: 56.7%
- CYTOTOXICITY (%), effector target ratio 1:3, LDH release, 18 h [3]: 25.3%
- CYTOTOXICITY (%), effector target ratio 3:1, LDH release, 18 h [3]: 86.5%

Binder: B3
- Kd [4]: 0.00404 µM
- koff [4]: 0.00116 s⁻¹
- kon [4]: 288000 M⁻¹ s⁻¹

Binder: B4
- Kd [4]: 0.00717 µM
- koff [4]: 0.000789 s⁻¹
- kon [4]: 110000 M⁻¹ s⁻¹

Binder: B5
- Positive rate of CTL cells transfection [2]: 83%
- CYTOTOXICITY (%), effector target ratio 1:1, LDH release, 18 h [3]: 60.2%
- CYTOTOXICITY (%), effector target ratio 1:3, LDH release, 18 h [3]: 31.9%
- CYTOTOXICITY (%), effector target ratio 3:1, LDH release, 18 h [3]: 89.3%

Binder: B6
- binding result [1]: no binding

Binder: B7
- Positive rate of CTL cells transfection [2]: 71%

Binder: B8
- Kd [5]: 0.0189 µM
- koff [5]: 0.00156 s⁻¹
- kon [5]: 82500 M⁻¹ s⁻¹
- Kd [6]: 0.0162 µM
- koff [6]: 0.000935 s⁻¹
- kon [6]: 57700 M⁻¹ s⁻¹

Binder: B9
- Positive rate of CTL cells transfection [2]: 75%
